According to patent US20200071424A1:

B1: h12B10-S1 (antibody, V domains shown)
VH: EVQLVESGGGLVKPGGSLRLSCAASGFSLSTSGMGVGWVRQAPGKGLEWLAHIWWNDEKYYNPSLKSRFTISRDDSKNTLYLQMNSLKTEDTAVYYCARDHLAYYFDVWGQGTLVTVSS
VL: DIQMTQSPSSLSASVGDRVTITCKASQDINKYIAWYQQKPGKAPKLLMAYPFTLQPGVPSRFSGSGSGTDFTLTISSLQPEDFATYYCLQYDNLLWTFGQGTKVEIK
B2: h12B10-S2 (antibody, V domains shown)
VH: EVQLVESGGGLVKPGGSLRLSCAASGFSLSTSGMGVGWVRQAPGKGLEWLAHIWWNDEKYYNPSLKSRFTISRDDSKNTLYLQMNSLKTEDTAVYYCARDHLAFYFDLWGQGTLVTVSS
VL: DIQMTQSPSSLSASVGDRVTITCKASQDINKYIAWYQQKPGKAPKLLMAYPFTLQPGVPSRFSGSGSGTDFTLTISSLQPEDFATYYCLQYDNLLWTFGQGTKVEIK
B3: h12B10-S3 (antibody, V domains shown)
VH: EVQLVESGGGLVKPGGSLRLSCAASGFSLSTSGMGVGWVRQAPGKGLEWLAHIWWNDEKYYNPSLKSRFTISRDDSKNTLYLQMNSLKTEDTAVYYCARDHLAFFFDLWGQGTLVTVSS
VL: DIQMTQSPSSLSASVGDRVTITCKASQDINKYIAWYQQKPGKAPKLLMAYPFTLQPGVPSRFSGSGSGTDFTLTISSLQPEDFATYYCLQYDNLLWTFGQGTKVEIK
B4: h12B10-S4 (antibody, V domains shown)
VH: EVQLVESGGGLVKPGGSLRLSCAASGFSLSSSGMGVGWVRQAPGKGLEWLAHIWWNDEKYYNPSLKSRFTISRDDSKNTLYLQMNSLKTEDTAVYYCARDHLVFFFDLWGQGTLVTVSS
VL: DIQMTQSPSSLSASVGDRVTITCKASQDINKYIAWYQQKPGKAPKLLMAYPFTLQPGVPSRFSGSGSGTDFTLTISSLQPEDFATYYCLQYDNLLWTFGQGTKVEIK
B5: h16B3-S1 (antibody, V domains shown)
VH: EVQLVESGGGLVQPGGSLRLSCAASGFTFSGYTMSWVRQAPGKGLEWVSEISFARDRAFYPDTVKGRFTISRDNSKNTLYLQMNSLRAEDTAVYYCAKLGGRNHDYWYFDVWGQGTTVTVSS
VL: DIVMTQSPDSLAVSLGERATINCRASESVEYYGTSLMQWYQQKPGQPPKLLIYAASNVESGVPDRFSGSGSGTDFTLTISSLQAEDVAVYYCQQSWKVPFTFGQGTKLEIK
B6: h53A11-S1 (antibody, V domains shown)
VH: QVQLVQSGAEVKKPGASVKVSCKASGYTFTDYTMHWVRQAPGQRLEWMGGINPYYGGTTYNEKFKDRVTITRDTSASTAYMELSSLRSEDTAVYYCAKGDYYGGSYNYWGQGTTVTVSS
VL: EIVMTQSLATLSVSPGERATLSCRASQDISNSLHWYQQKPGQAPRLLIKYASQSISGIPARFSGSGSGTEFTLTISSLQSEDFAVYYCQQSNSWPYTFGQGTKLEIK
B7: h53A11-S2 (antibody, V domains shown)
VH: QVQLVQSGAEVKKPGASVKVSCKASGYTFTDYTMHWVRQAPGQRLEWMGGINPYYGGTTYNEKFKDRVTITRDTSASTAYMELSSLRSEDTAVYYCAKGDYYGGSYNYWGQGTTVTVSS
VL: EIVMTQSLATLSVSPGERATLSCRASQDISNSLHWYQQKPGQAPRLLIYYASQSISGIPARFSGSGSGTEFTLTISSLQSEDFAVYYCQQSNSWPYTFGQGTKLEIK
B8: h53A11-S3 (antibody, V domains shown)
VH: QVQLVQSGAEVKKPGASVKVSCKASGYTFTDYTMHWVRQAPGQRLEWMGGINPYYGGTTYNEKFKDRVTITRDTSASTAYMELSSLRSEDTAVYYCAKGDYYGGSYNYWGQGTTVTVSS
VL: EIVMTQSPATLSVSPGERATLSCRASQDISNSLHWYQQKPGQAPRLLIKYASQSISGIPARFSGSGSGTEFTLTISSLQSEDFAVYYCQQSNSWPYTFGQGTKLEIK
B9: h23H8-S1 (antibody, V domains shown)
VH: QVQLVQSGAEVKKPGASVKVSCKASGYTFTDNTIHWVRQAPGQGLEWMGHINPYYGGTNNNEKFKDRVTMTRDTSISTAYMELSRLRSDDTAVYYCARKGIYYSSPFDYWGQGTTVTVSS
VL: DIQMTQSPSSLSASVGDRVTITCRASQDINNYLNWYQQKPGKAPKLLIYYTSKLHSGVPSRFSGSGSGTDFTLTISSLQPEDFATYYCQQGNTLPFTFGQGTKLEIK
B10: h23H8-S2 (antibody, V domains shown)
VH: QVQLVQSGAEVKKPGASVKVSCKASGYTFTDNTIHWVRQAPGQGLEWMGHINPYYGGTNNNEKFKDRVTMTRDTSISTAYMELSRLRSDDTAVYYCARKGIYYSSPFDYWGQGTTVTVSS
VL: DIQMTQSPSSLSASVGDRVTITCRASQDINNYLNWYQQKPGKAPKLLISYTSKLHSGVPSRFSGSGSGTDFTLTISSLQREDFATYYCQQGNTLPFTFGQGTKLEIK
B11: h23H8-S3 (antibody, V domains shown)
VH: QVQLVQSGAEVKKPGASVKVSCKASGYTFTDNTIHWVRQAPGQGLEWMGHINPYYGGTNNNEKFKDRVTMTRDTSISTAYMELSRLRSDDTAVYYCARKGIYYSSPFDYWGQGTTVTVSS
VL: DIQMTQSPSSLSASVGDRVTITCRASQDINNYLNWYQQKPGKAPKLLISYTSKLHSGVPSRFSGSGSGTDFTLTISSLQPEDFATYYCQQGNTLPFTFGQGTKLEIK
B12: h13B3-S1 (antibody, V domains shown)
VH: QVQLVQSGAEVKKPGASVKVSCKASGYTFTEYTMHWVRQAPGQGLEWMGSINPYYGGTSYNEKFKDRVTMTRDTSTSTVYMELSSLRSEDTAVYYCARYGNYVGYFDYWGQGTTVTVSS
VL: EIVLTQSPGTLSLSPGERATLSCRASSSVHYMYWYQQKPGQAPRLLIYYTSNLAPGIPDRFSGSGSGTDFTLTISRLEPEDFAVYYCQQFTSSPYTFGGGTKVEIK
B13: h13B3-S2 (antibody, V domains shown)
VH: QVQLVQSGAEVKKPGASVKVSCKASGYTFTEYTMHWVRQAPGQGLEWMGSINPYYGGTSYNEKFKDRVTSTRDTSISTAYMELSRLRSDDTVVYYCARYGNYVGYFDYWGQGTTVTVSS
VL: EIVLTQSPGTLSLSPGERATLSCRASSSVHYMYWYQQKPGQAPRLLIYYTSNLAPGIPDRFSGSGSGTDFTLTISRLEPEDFAVYYCQQFTSSPYTFGGGTKVEIK
B14: h13B3-S3 (antibody, V domains shown)
VH: QVQLVQSGAEVKKPGASVKVSCKASGYTFTEYTMHWVRQAPGQGLEWMGSINPYYGGTSYNEKFKDRVTMTRDTSTSTVYMELSSLRSEDTAVYYCARYGNYVGYFDYWGQGTTVTVSS
VL: EIVLTQSPATLSLSPGERATLSCRASSSVHYMYWYQQKPGQAPRLLIYYTSNLAPGIPARFSGSGSGTDFTLTISSLEPEDFAVYYCQQFTSSPYTFGGGTKVEIK
B15: h13B3-S4 (antibody, V domains shown)
VH: QVQLVQSGAEVKKPGASVKVSCKASGYTFTEYTMHWVRQAPGQGLEWMGSINPYYGGTSYNEKFKDRVTSTRDTSISTAYMELSRLRSDDTVVYYCARYGNYVGYFDYWGQGTTVTVSS
VL: EIVLTQSPATLSLSPGERATLSCRASSSVHYMYWYQQKPGQAPRLLIYYTSNLAPGIPARFSGSGSGTDFTLTISSLEPEDFAVYYCQQFTSSPYTFGGGTKVEIK

Tests used:
[1] = molecular target: human-mouse chimeric EL (construct not specified); test: cell-based or functional assay
[2] = molecular target: human-mouse chimeric EL (construct not specified); test: Biacore; EL captured by anti-C2-tag Ab; bivalent fit
[3] = molecular target: cynomolgus monkey EL (cynomolgus monkey); test: cell-based or functional assay
[4] = molecular target: cynomolgus monkey EL (cynomolgus monkey); test: Biacore; EL captured by anti-C2-tag Ab; bivalent fit

Row | Binder | Neutralizing activity IC50 [1] [nM] | Kd [2] [nM] | koff [2] [s⁻¹] | kon [2] [M⁻¹ s⁻¹] | Neutralizing activity IC50 [3] [nM] | Kd [4] [nM] | koff [4] [s⁻¹] | kon [4] [M⁻¹ s⁻¹]
1 | B1 | 6 | 1.9 | 0.00035 | 190000 |  |  |  | 
2 | B2 | 5.4 | 0.14 | 3.3e-05 | 240000 |  |  |  | 
3 | B3 | 4.9 | 0.11 | 1.7e-05 | 150000 |  |  |  | 
4 | B4 | 6.2 |  |  |  |  |  |  | 
5 | B5 |  |  |  |  | 3.6 | 11 | 0.001 | 94000
6 | B6 |  |  |  |  | 1.7 | 2.3 | 0.0003 | 130000
7 | B7 |  |  |  |  | 1.8 | 4.3 | 0.00065 | 150000
8 | B8 |  |  |  |  | 1.2 | 5.8 | 0.0007 | 120000
9 | B9 |  |  |  |  | 26 | 36 | 0.0036 | 100000
10 | B10 |  |  |  |  | 1.7 | 4.3 | 0.00099 | 230000
11 | B11 |  |  |  |  | 1.8 | 0.41 | 0.00015 | 370000
12 | B12 |  |  |  |  | 2.4 | 5.7 | 0.00043 | 76000
13 | B13 |  |  |  |  | 3.6 | 3.1 | 0.00014 | 45000
14 | B14 |  |  |  |  | 4.1 | 13 | 0.00085 | 66000
15 | B15 |  |  |  |  | 2.9 | 3.5 | 0.00038 | 110000
